# Measurements from patent US20250297007A1 (published 2025).
# Numbering of substitutions follows the chain as printed.
# T1: recombinant protein TCRVB 6-5 (human, biotinylated (captured on a Biotin CAP chip); site not stated)
# T1 construct: also called TCRVβ 6-5; TCRβ V6-5*01
# T1 TCR beta: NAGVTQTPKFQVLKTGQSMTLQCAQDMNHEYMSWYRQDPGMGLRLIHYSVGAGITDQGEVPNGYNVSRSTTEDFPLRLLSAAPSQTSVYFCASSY
# B1: A-H.52 (scFv)
# scFv: QVQLVQSGAEVKKPGSSVKVSCKASGYSFTLGYIHWVRQAPGQGLEWMGWFFPGSGNIKYNEKFKGRVTITADTSTSTAYMELSSLRSEDTAVYYCAGSYYSYDVLDYWGQGTTVTVSSGGGGSGGGGSGGGGSGGGGSDIQMTQSPSFLSASVGDRVTITCKASQNVGINVVWHQQKPGKAPKALIYSSSHRYSGVPSRFSGSGSGTEFTLTISSLQPEDFATYFCQQFKSYPLTFGQGTKLEIK
# notes: Phage clone, stated to be a monovalent scFv with two mutations in CDRH1; also called Antibody A-H.52
# B2: A-H.54 (scFv)
# scFv: B1 scFv with T30H, L31N, G32W
# notes: Phage clone; also called Antibody A-H.54
# B3: A-H.53 (scFv)
# scFv: B1 scFv with T30R, G32T
# notes: Phage clone; also called Antibody A-H.53
# B4: BJM0277 (antibody, V domains shown)
# VH: QVQLVQSGAEVKKPGSSVKVSCKASGYSFTTYYIHWVRQAPGQGLEWMGWFFPGSGNIKYNEKFKGRVTITADTSTSTAYMELSSLRSEDTAVYYCAGSYYSYDVLDYWGQGTTVTVSS
# VL: DIQMTQSPSFLSASVGDRVTITCKASQNVGINVVWHQQKPGKAPKALIYSSSHRYSGVPSRFSGSGSGTEFTLTISSLQPEDFATYFCQQFKSYPLTFGQGTKLEIKR
# Target: T1, recombinant protein TCRVB 6-5
# Test: SPR-type chip assay; TCRVB 6-5 captured on Biotin CAP Series S chip, construct as analyte, 1:1 binding model, 25C
# Protocol: TCRVB 6-5 at 5 ug/mL was immobilized on a Biotin CAP Series S Sensor Chip to 60 RU. A-H.52 was diluted to 50 nM and then serially diluted two fold Association was 120 seconds, dissociation was 300 seconds. This assay was run in 1×HBS-EP+ Buffer pH 7.4 and 25C. The data was fit using a 1:1 binding model. A-H.52 is a phage clones and is a monovalent scFv. A-H.52 has two mutations on CDRH1.
# (§1) TCRVB 6-5 at 5 ug/mL was immobilized on a Biotin CAP Series S Sensor Chip to 60 RU. A-H.53 was diluted to 50 nM and then serially diluted two fold. Association was 120 seconds, dissociation was 300 seconds. This assay was run in 1×HBS-EP+ Buffer pH 7.4 and 25C. The data was fit using a 1:1 binding model. A-H.53 (phage clone) affinity is in the pM range (Table 17).
# as §1, with “A-H.54” for “A-H.53”, “model.” for “model. A-H.53 (phage clone) affinity is in the pM range (Table 17).”
row,Binder,Kd
1,B1,1.76 nM
2,B2,2.22 nM
3,B3,0.165 nM
4,B4,35 nM
